Earlier results on nine molecules are cited in patent publication US20200069786A1, “COMPOSITION AND PROCESS FOR PREPARING VACCINE” (TREOS BIO ZRT., priority 2018, published 2020).

Like-named read-outs stand apart in the source and are kept apart here.

This data set relates to TSA.
Where [1] appears, read: TSA expression rate in Cervical cancer.
The mark [2] stands for this setting: TSA expression rate in GASTRIC cancer.
[3] abbreviates: TSA expression rate in MELANOMA
[4] abbreviates: TSA expression rate in BLADDER cancer.
Where [5] appears, read: TSA expression rate in LUNG cancer.

B1: FSIP1 (protein, UniProt Q8NA03 1-581, looked up)
Fibrous sheath-interacting …: MDIIKGNLDGISKPASNSRIRPGSRSSNASLEVLSTEPGSFKVDTASNLNSGKEDHSESSNTENRRTSNDDKQESCSEKIKLAEEGSDEDLDLVQHQIISECSDEPKLKELDSQLQDAIQKMKKLDKILAKKQRREKEIKKQGLEMRIKLWEEIKSAKYSEAWQSKEEMENTKKFLSLTAVSEETVGPSHEEEDTFSSVFHTQIPPEEYEMQMQKLNKDFTCDVERNESLIKSGKKPFSNTEKIELRGKHNQDFIKRNIELAKESRNPVVMVDREKKRLVELLKDLDEKDSGLSSSEGDQSGWVVPVKGYELAVTQHQQLAEIDIKLQELSAASPTISSFSPRLENRNNQKPDRDGERNMEVTPGEKILRNTKEQRDLHNRLREIDEKLKMMKENVLESTSCLSEEQLKCLLDECILKQKSIIKLSSERKKEDIEDVTPVFPQLSRSIISKLLNESETKVQKTEVEDADMLESEECEASKGYYLTKALTGHNMSEALVTEAENMKCLQFSKDVIISDTKDYFMSKTLGIGRLKRPSFLDDPLYGISVSLSSEDQHLKLSSPENTIADEQETKDAAEECKEP
Turning to B1, the “TSA Expression Rate (ER)” value (BREAST) is listed as 42%.

B2: CEP55 (protein, UniProt Q53EZ4 1-464, looked up)
Centrosomal protein of 55 kDa: MSSRSTKDLIKSKWGSKPSNSKSETTLEKLKGEIAHLKTSVDEITSGKGKLTDKERHRLLEKIRVLEAEKEKNAYQLTEKDKEIQRLRDQLKARYSTTTLLEQLEETTREGERREQVLKALSEEKDVLKQQLSAATSRIAELESKTNTLRLSQTVAPNCFNSSINNIHEMEIQLKDALEKNQQWLVYDQQREVYVKGLLAKIFELEKKTETAAHSLPQQTKKPESEGYLQEEKQKCYNDLLASAKKDLEVERQTITQLSFELSEFRRKYEETQKEVHNLNQLLYSQRRADVQHLEDDRHKTEKIQKLREENDIARGKLEEEKKRSEELLSQVQFLYTSLLKQQEEQTRVALLEQQMQACTLDFENEKLDRQHVQHQLHVILKELRKARNQITQLESLKQLHEFAITEPLVTFQGETENREKVAASPKSPTAALNESLVECPKCNIQYPATEHRDLLVHVEYCSK
On to B2, for which the “TSA Expression Rate (ER)” value (LUNG) is reported as 94%.

B3: ZNF645 (protein, UniProt Q8N7E2 1-425, looked up)
E3 ubiquitin-protein ligase …: MNKMPAGEQECEYNKEGKYYSKGVKLVRKKKKIPGYRWGDIKINIIGEKDDLPIHFCDKCDLPIKIYGRIIPCKHAFCYHCANLYDKVGYKVCPRCRYPVLRIEAHKRGSVFMCSIVQQCKRTYLSQKSLQAHIKRRHKRARKQVTSASLEKVRPHIAPPQTEISDIPKRLQDRDHLSYIPPEQHTMVSLPSVQHMLQEQHNQPHKDIQAPPPELSLSLPFPIQWETVSIFTRKHGNLTVDHIQNNSDSGAKKPTPPDYYPECQSQPAVSSPHHIIPQKQHYAPPPSPSSPVNHQMPYPPQDVVTPNSVRSQVPALTTTYDPSSGYIIVKVPPDMNSPPLRAPQSQNGNPSASEFASHHYNLNILPQFTENQETLSPQFTQTDAMDHRRWPAWKRLSPCPPTRSPPPSTLHGRSHHSHQRRHRRY
On to B3, for which the “TSA Expression Rate (ER)” value (LUNG) was 68%.

B4: GASZ (protein, UniProt Q8WWH4 1-475, looked up)
Ankyrin repeat, SAM and basic …: MAASALRGLPVAGGGESSESEDDGWEIGYLDRTSQKLKRLLPIEEKKEKFKKAMTIGDVSLVQELLDSGISVDSNFQYGWTPLMYAASVANAELVRVLLDRGANASFEKDKQSILITACSAHGSEEQILKCVELLLSRNADPNVACRRLMTPIMYAARDGHTQVVALLVAHGAEVNTQDENGYTALTWAARQGHKNIVLKLLELGANKMLQTKDGKMPSEIAKRNKHHEIFNLLSFTLNPLEGKLQQLTKEDTICKILTTDSDREKDHIFSSYTAFGDLEVFLHGLGLEHMTDLLKERDITLRHLLTMREDEFTKNGITSKDQQKILAALKELQVEEIQFGELSEETKLEISGDEFLNFLLKLNKQCGHLITAVQNVITELPVNSQKITLEWASPQNFTSVCEELVNNVEDLSEKVCKLKDLIQKLQNERENDPTHIQLREEVSTWNSRILKRTAITICGFGFLLFICKLTFQRK
Take B4: the “TSA Expression Rate (ER)” value by setting is: (LUNG) 29%; (THYROID) 13%. In addition, the “Expression Rate (ER) %” value is listed as 22% (TSA expression rate in CRC), 50% under setting [1], 0% under setting [2] and 17% under setting [3].

B5: NY-BR-1 (protein, UniProt Q9BXX3 1-1397, looked up)
Ankyrin repeat …: MEEISAAAVKVVPGPERPSPFSQLVYTSNDSYIVHSGDLRKIHKAASRGQVRKLEKMTKRKKTINLNIQDAQKRTALHWACVNGHEEVVTFLVDRKCQLDVLDGEHRTPLMKALQCHQEACANILIDSGADINLVDVYGNTALHYAVYSEILSVVAKLLSHGAVIEVHNKASLTPLLLSITKRSEQIVEFLLIKNANANAVNKYKCTALMLAVCHGSSEIVGMLLQQNVDVFAADICGVTAEHYAVTCGFHHIHEQIMEYIRKLSKNHQNTNPEGTSAGTPDEAAPLAERTPDTAESLVEKTPDEAAPLVERTPDTAESLVEKTPDEAASLVEGTSDKIQCLEKATSGKFEQSAEETPREITSPAKETSEKFTWPAKGRPRKIAWEKKEDTPREIMSPAKETSEKFTWAAKGRPRKIAWEKKETPVKTGCVARVTSNKTKVLEKGRSKMIACPTKESSTKASANDQRFPSESKQEEDEEYSCDSRSLFESSAKIQVCIPESIYQKVMEINREVEEPPKKPSAFKPAIEMQNSVPNKAFELKNEQTLRADPMFPPESKQKDYEENSWDSESLCETVSQKDVCLPKATHQKEIDKINGKLEESPNKDGLLKATCGMKVSIPTKALELKDMQTFKAEPPGKPSAFEPATEMQKSVPNKALELKNEQTLRADEILPSESKQKDYEENSWDTESLCETVSQKDVCLPKAAHQKEIDKINGKLEGSPVKDGLLKANCGMKVSIPTKALELMDMQTFKAEPPEKPSAFEPAIEMQKSVPNKALELKNEQTLRADEILPSESKQKDYEESSWDSESLCETVSQKDVCLPKATHQKEIDKINGKLEESPDNDGFLKAPCRMKVSIPTKALELMDMQTFKAEPPEKPSAFEPAIEMQKSVPNKALELKNEQTLRADQMFPSESKQKKVEENSWDSESLRETVSQKDVCVPKATHQKEMDKISGKLEDSTSLSKILDTVHSCERARELQKDHCEQRTGKMEQMKKKFCVLKKKLSEAKEIKSQLENQKVKWEQELCSVRLTLNQEEEKRRNADILNEKIREELGRIEEQHRKELEVKQQLEQALRIQDIELKSVESNLNQVSHTHENENYLLHENCMLKKEIAMLKLEIATLKHQYQEKENKYFEDIKILKEKNAELQMTLKLKEESLTKRASQYSGQLKVLIAENTMLTSKLKEKQDKEILEAEIESHHPRLASAVQDHDQIVTSRKSQEPAFHIAGDACLQRKMNVDVSSTIYNNEVLHQPLSEAQRKSKSLKINLNYAGDALRENTLVSEHAQRDQRETQCQMKEAEHMYQNEQDNVNKHTEQQESLDQKLFQLQSKNMWLQQQLVHAHKKADNKSKITIDIHFLERKMQHHLLKEKNEEIFNYNNHLKNRIYQYEKEKAETENS
As to B5, under “BREAST”, the “TSA Expression Rate (ER)” value is on record as 47%. For the same molecule, the “Expression Rate (ER) %” value (TSA expression rate in HEAD and NECK) was 2%.

B6: TSPY1 (protein, UniProt Q01534 1-308, looked up)
Testis-specific Y-encoded …: MRPEGSLTYRVPERLRQGFCGVGRAAQALVCASAKEGTAFRMEAVQEGAAGVESEQAALGEEAVLLLDDIMAEVEVVAEEEGLVERREEAQRAQQAVPGPGPMTPESAPEELLAVQVELEPVNAQARKAFSRQREKMERRRKPHLDRRGAVIQSVPGFWANVIANHPQMSALITDEDEDMLSYMVSLEVGEEKHPVHLCKIMLFFRSNPYFQNKVITKEYLVNITEYRASHSTPIEWYPDYEVEAYRRRHHNSSLNFFNWFSDHNFAGSNKIAEILCKDLWRNPLQYYKRMKPPEEGTETSGDSQLLS
Take B6: for the setting “HCC”, the “TSA Expression Rate (ER)” value is 35%. Moreover, the “Expression Rate (ER) %” value was 0% under setting [4]; 0% under setting [2]; 5% (TSA expression rate in Kidney); 12% (TSA expression rate in LEUKEMIAS); 0% under setting [5]; 0% (TSA expression rate in LYMPHOMAS).

B7: CT46 (protein, UniProt Q86X24 1-394, looked up)
HORMA domain-containing …: MATAQLQRTPMSALVFPNKISTEHQSLVLVKRLLAVSVSCITYLRGIFPECAYGTRYLDDLCVKILREDKNCPGSTQLVKWMLGCYDALQKKYLRMVVLAVYTNPEDPQTISECYQFKFKYTNNGPLMDFISKNQSNESSMLSTDTKKASILLIRKIYILMQNLGPLPNDVCLTMKLFYYDEVTPPDYQPPGFKDGDCEGVIFEGEPMYLNVGEVSTPFHIFKVKVTTERERMENIDSTILSPKQIKTPFQKILRDKDVEDEQEHYTSDDLDIETKMEEQEKNPASSELEEPSLVCEEDEIMRSKESPDLSISHSQVEQLVNKTSELDMSESKTRSGKVFQNKMANGNQPVKSSKENRKRSQHESGRIVLHHFDSSSQESVPKRRKFSEPKEHI
With B7, the “TSA Expression Rate (ER)” value (BREAST) is listed as 29% and the “TSA Expression Rate (ER)” value (LUNG) is on record as 47%. Also, the “Expression Rate (ER) %” value reads like this: under setting [4], 20%; (TSA expression rate in CRC) 7%; (TSA expression rate in Esophageal) 35%.

B8: DKKL1 (protein, UniProt Q9UK85 31-242, looked up)
Dickkopf-like protein 1: APIHDADAQESSLGLTGLQSLLQGFSRLFLKGNLLRGIDSLFSAPMDFRGLPGNYHKEENQEHQLGNNTLSSHLQIDKMTDNKTGEVLISENVVASIQPAEGSFEGDLKVPRMEEKEALVPIQKATDSFHTELHPRVAFWIIKLPRRRSHQDALEGGHWLSEKRHRLQAIRDGLRKGTHKDVLEEGTESSSHSRLSPRKTHLLYILRPSRQL
In the case of B8, the “TSA Expression Rate (ER)” value by setting is: (BREAST) 20%; (OVARIAN) 57%; (THYROID) 0%. Besides, the “Expression Rate (ER) %” value is 0% (TSA expression rate in CRC); 33% under setting [1]; 0% (TSA expression rate in Kidney); 12% under setting [5]; 25% under setting [3]; 13% (TSA expression rate in PROSTATE cancer).

B9: FBXO39 (protein, UniProt Q8N4B4 1-442, looked up)
F-box only protein 39: MDEESELIQPQDQSCWAFLPDLCLCRVFWWLGDRDRSRAALVCRKWNQMMYSAELWRYRTITFSGRPSRVHASEVESAVWYVKKFGRYLEHLEVKFMNPYNAVLTKKFQVTMRGLLSCLSKSNNRLKSLSIQYLELDRLVWRNSIRSSFISSLSFFLKKMGKRLDYLNLKGARLTVEQGCQILDSLSYMRNENVISELNIEDYFSHHLAVYNSPQFKKTMSTFHNLVSLNLNYNCISDELLENLCENASTLRTINIKCHVHDPHGQVIWGMSWAKLARQATNLKVNFFFERIMKYERLARILLQEIPIRSISLRSCYFSDPDCSMRPTLIDLLPTFRHTLQKLTCEFNNNHESLDEELHLLIISCRKLFYFKIWAFLDVSFVERILKSQKERQCALRVFKARIYTNRYETNEEDKTLQEIYRKYRKLIESELSYFVIVYSVM
Turning to B9, the “TSA Expression Rate (ER)” value (BREAST) is given as 38%. The “Expression Rate (ER) %” value is, setting by setting: (TSA expression rate in CRC) 39%; under setting [2], 4%; under setting [5], 0%.
